The supplement of paper PMC9233669
This sample holds only a part of the variants without activity.

Tests used:
biotinyl-Phe-oxazolone = experiment: self-aminoacylation, catalytic enhancement (BFO) (fold over background); higher = more active; k-Seq, kA / k0A0; sequences stand for … in GGGAAUGGAUCCACAUCUACGAAUUC…UUCACUGCAGACUUGACGAAGCUG
Summary of the method: (§1)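 Each biotinyl-aminoacyl-oxazolone, at 2–1250 μM, was incubated with mutagenized RNA pools (0.43 μM) carrying a 21-nt variable region. The 50 μL reactions contained HEPES/NaCl/KCl/MgCl2/CaCl2 buffer with 5% acetonitrile at pH 6.9–7.0 and ran for 90 minutes at room temperature. After streptavidin capture, RNA was measured by qPCR in triplicate and by Illumina sequencing, and catalytic enhancement was calculated as median kA over the uncatalyzed rate from a pseudo-first-order fit of per-sequence fraction reacted.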

biotinyl-Ile-oxazolone = experiment: self-aminoacylation, catalytic enhancement (BIO) (fold over background); higher = more active; k-Seq, kA / k0A0; sequences stand for … in GGGAAUGGAUCCACAUCUACGAAUUC…UUCACUGCAGACUUGACGAAGCUG
Summary of the method: as §1

biotinyl-Met-oxazolone = experiment: self-aminoacylation, catalytic enhancement (BMO) (fold over background); higher = more active; k-Seq, kA / k0A0; sequences stand for … in GGGAAUGGAUCCACAUCUACGAAUUC…UUCACUGCAGACUUGACGAAGCUG
Summary of the method: as §1

biotinyl-Val-oxazolone = experiment: self-aminoacylation, catalytic enhancement (BVO) (fold over background); higher = more active; k-Seq, kA / k0A0; sequences stand for … in GGGAAUGGAUCCACAUCUACGAAUUC…UUCACUGCAGACUUGACGAAGCUG
Summary of the method: as §1

biotinyl-Trp-oxazolone = experiment: self-aminoacylation, catalytic enhancement (BWO) (fold over background); higher = more active; k-Seq, kA / k0A0; sequences stand for … in GGGAAUGGAUCCACAUCUACGAAUUC…UUCACUGCAGACUUGACGAAGCUG
Summary of the method: as §1

biotinyl-Leu-oxazolone = experiment: self-aminoacylation, catalytic enhancement (BLO) (fold over background); higher = more active; k-Seq, kA / k0A0; sequences stand for … in GGGAAUGGAUCCACAUCUACGAAUUC…UUCACUGCAGACUUGACGAAGCUG
Summary of the method: as §1

Sequence | self-aminoacylation (biotinyl-Phe-oxazolone) | self-aminoacylation (biotinyl-Ile-oxazolone) | self-aminoacylation (biotinyl-Met-oxazolone) | self-aminoacylation (biotinyl-Val-oxazolone) | self-aminoacylation (biotinyl-Trp-oxazolone) | self-aminoacylation (biotinyl-Leu-oxazolone)
AUAACCCUGGUGAUCGAGUGA [Fam2.1 aminoacylation ribozyme variant] | 36.3 | 3.03 | 6.53 | 3.03 | 7.08 | 6.37
CAGUUUGCUAAAAGUCGCAAG [Fam3.1 aminoacylation ribozyme variant] | 1.86 | 1.46 | 1.64 | 1.4 | 1.3 | 1.5
AUUACCCUGGUCAUCGCGGGA [Fam2.1 aminoacylation ribozyme variant] | 29.3 | 5.03 | 5.35 | 4.56 | 3.4 | 7.42
CGACACUUCAAGUAAUCGGUC [Fam1B.1 aminoacylation ribozyme variant] | 3.36 | 1.69 | 1.5 | 1.47 | 2.28 | 1.16
CCACACUUCAAGCAUUCGAUC [Fam1B.1 aminoacylation ribozyme variant] | 1.11 | 0.664 | 0.629 | 0.856 | 0.748 | 0.577
CCACACUUCUAGCAAUCAGUC [Fam1B.1 aminoacylation ribozyme variant] | 1.14 | 0.797 | 0.648 | 0.721 | 0.459 | 0.622
AUUGCCCUAGUCAUCGAGUGA [Fam2.1 aminoacylation ribozyme variant] | 23.6 | 2.73 | 5.83 | 3.21 | 6.87 | 4.97
AUUCAGCUAGGUCAUUGGGUG [Fam2.2 aminoacylation ribozyme variant] | 15 | 2.04 | 2.62 | 2.55 | 3.25 | 2.38
CCACAAUUCAUGCAAUCGGUC [Fam1B.1 aminoacylation ribozyme variant] | 1.19 | 1.25 | 1.1 | 1.41 | 0.87 | 1.16
AUUACCGUGGUCACCGAGUGA [Fam2.1 aminoacylation ribozyme variant] | 9.08 | 2.39 | 3.87 | 2.83 | 2.95 | 3.65
CCACACUGGAAGCAAUCGGUC [Fam1B.1 aminoacylation ribozyme variant] | 0.508 | 0.881 | 0.78 | 1.08 | 0.543 | 0.737
AUCACCCUGGUCAUCGAGUGG [Fam2.1 aminoacylation ribozyme variant] | 41.8 | 4.14 | 10.3 | 5.02 | 10.2 | 12.7
AAGUUUCCUAAGAGUCGCAAG [Fam3.1 aminoacylation ribozyme variant] | 1.17 | 1.29 | 1.04 | 1.31 | 0.936 | 1.24
CUACUUCAAACCAUCGGGCUG [Fam1A.1 aminoacylation ribozyme variant] | 0.939 | 1.97 | 2.16 | 1.92 | 1.77 | 1.73
AUUACCCUGGUCGUCUAGUGA [Fam2.1 aminoacylation ribozyme variant] | 2.09 | 1.15 | 1.37 | 1.04 | 0.905 | 1.53
AAGUUUGCUAUUAGUCGCAAA [Fam3.1 aminoacylation ribozyme variant] | 1.58 | 1.52 | 1.84 | 1.35 | 1.74 | 1.47
AGUCACCUAGGCCAUCGGGUG [Fam2.2 aminoacylation ribozyme variant] | 25 | 3.31 | 3.86 | 3.96 | 5.32 | 3.53
AAGUUUGCUAAUCCUCGCAAG [Fam3.1 aminoacylation ribozyme variant] | 0.881 | 0.706 | 0.628 | 0.733 | 0.599 | 0.725
CUAGUUCAAACAAUCGGUCCG [Fam1A.1 aminoacylation ribozyme variant] | 0.893 | 0.787 | 0.742 | 0.649 | 0.582 | 0.745
AAGUUUGCCAAUAGUCCCAAG [Fam3.1 aminoacylation ribozyme variant] | 0.931 | 1.21 | 1.1 | 1.04 | 1.27 | 0.831
AAGUUUGGUAAUAGUCGCUAG [Fam3.1 aminoacylation ribozyme variant] | 1.64 | 1.18 | 1.05 | 0.958 | 1.47 | 0.996
CAACUUCAAACAUUCGGUCUG [Fam1A.1 aminoacylation ribozyme variant] | 11.5 | 1.53 | 1.34 | 1.57 | 1.74 | 1.5
AAGUCUGCUACUAGUCGCAAG [Fam3.1 aminoacylation ribozyme variant] | 0.846 | 0.699 | 0.856 | 0.84 | 0.731 | 1.15
AACUUUGCUAAUAAUCGCAAG [Fam3.1 aminoacylation ribozyme variant] | 3.06 | 1.93 | 1.96 | 1.96 | 2.71 | 2.04
AUUCACGUAGGUCAUCGCGUG [Fam2.2 aminoacylation ribozyme variant] | 119 | 7.52 | 16 | 9.95 | 11.1 | 15.8
AAUUACCUAGGUCAUCGGGUG [Fam2.2 aminoacylation ribozyme variant] | 38 | 4.3 | 6.04 | 4.24 | 7.49 | 6.53

Sequence | self-aminoacylation (biotinyl-Phe-oxazolone) | self-aminoacylation (biotinyl-Ile-oxazolone) | self-aminoacylation (biotinyl-Met-oxazolone) | self-aminoacylation (biotinyl-Val-oxazolone) | self-aminoacylation (biotinyl-Trp-oxazolone) | self-aminoacylation (biotinyl-Leu-oxazolone)
AAGAUUGCUCAUAGUCGCAAG [Fam3.1 aminoacylation ribozyme variant] | 1.91 | 1.45 | 1.56 | 1.62 | 2.09 | 1.95
CCACACUUCAAGCAAUCCGUC [Fam1B.1 aminoacylation ribozyme variant] | 1.34 | 0.894 | 0.659 | 1.01 | 0.828 | 0.664
CUACUUCGAACAAUCGGACUG [Fam1A.1 aminoacylation ribozyme variant] | 0.493 | 0.679 | 0.593 | 0.502 | 0.492 | 0.65
AGUACCCUGGACAUCGAGUGA [Fam2.1 aminoacylation ribozyme variant] | 21.2 | 2.69 | 5.06 | 2.8 | 5.83 | 6.32
CUAGUUCAAACAAGCGGUCUG [Fam1A.1 aminoacylation ribozyme variant] | 1.21 | 1.2 | 1.54 | 0.93 | 1.19 | 1.08
UUCCUUCAAACAAUCGGUCUG [Fam1A.1 aminoacylation ribozyme variant] | 5.13 | 0.784 | 0.806 | 0.647 | 4.06 | 0.937
CUACUUCGAGCAAUCGGUCUG [Fam1A.1 aminoacylation ribozyme variant] | 0.728 | 0.951 | 1.15 | 1.01 | 0.703 | 0.815
AUACACGUAGGUCAUCGGGUG [Fam2.2 aminoacylation ribozyme variant] | 17.3 | 2.19 | 3.63 | 2.67 | 3.2 | 3.2
CUACUUCAAACAAUGGGGCUG [Fam1A.1 aminoacylation ribozyme variant] | 0.625 | 1.12 | 0.841 | 1.1 | 0.497 | 0.707
UUACUUCAAACAAUCGGGCUG [Fam1A.1 aminoacylation ribozyme variant] | 8.04 | 1.76 | 1.93 | 1.66 | 7.54 | 2.22
CUACACCUAGGUCAUCGGGUG [Fam2.2 aminoacylation ribozyme variant] | 3.13 | 1.72 | 2.27 | 1.72 | 2.08 | 2.12
CCUGACUUCAAGCAAUCGGUC [Fam1B.1 aminoacylation ribozyme variant] | 45.6 | 1.22 | 1.17 | 1.35 | 23.1 | 1.63
AUCCACCUAAGUCAUCGGGUG [Fam2.2 aminoacylation ribozyme variant] | 90.6 | 6.14 | 11.3 | 7.25 | 9.42 | 14.4
AAGUUUGCUCAUAGUCGCAUG [Fam3.1 aminoacylation ribozyme variant] | 0.909 | 1.05 | 0.893 | 1.04 | 0.856 | 0.903
AUUACCCUGGCGAUCGAGUGA [Fam2.1 aminoacylation ribozyme variant] | 24.3 | 2.12 | 4.06 | 2.69 | 4.59 | 4.77
AUACAGCUAGGUCAUCGGGUG [Fam2.2 aminoacylation ribozyme variant] | 25.1 | 3.25 | 2.96 | 3.09 | 3.64 | 4.04
AAGGUUGCUAAAAGUCGCAAG [Fam3.1 aminoacylation ribozyme variant] | 4.28 | 1.62 | 1.52 | 1.67 | 1.93 | 1.6
AAAACCCUGGUCAUCGAGUGA [Fam2.1 aminoacylation ribozyme variant] | 462 | 26.8 | 66.9 | 26.3 | 73.3 | 65.1
AUUCACCGAGGUCAUCGGGUG [Fam2.2 aminoacylation ribozyme variant] | 87 | 6.19 | 11.3 | 6.85 | 9.63 | 14.2
CUACUUUAAACAACCGGUCUG [Fam1A.1 aminoacylation ribozyme variant] | 0.725 | 0.909 | 0.996 | 0.973 | 1.07 | 0.978
ACUUUUGCUAAUAGUCGCAAG [Fam3.1 aminoacylation ribozyme variant] | 3.71 | 2.75 | 2.59 | 2.57 | 2.56 | 2.68
CUACUUCACACCAUCGGUCUG [Fam1A.1 aminoacylation ribozyme variant] | 0.625 | 0.82 | 0.943 | 0.949 | 0.885 | 0.764
CUACUACAAACAUUCGGUCUG [Fam1A.1 aminoacylation ribozyme variant] | 1.33 | 1.34 | 1.23 | 1.38 | 1.18 | 1.01
CGACUUCAAACGAUCGGUCUG [Fam1A.1 aminoacylation ribozyme variant] | 1.8 | 1.05 | 1.31 | 1.13 | 2.1 | 1.41
AUUACCAUGGUCUUCGAGUGA [Fam2.1 aminoacylation ribozyme variant] | 28 | 3.56 | 5.47 | 3.35 | 7.3 | 6.61
